Protein production data for 19 sequences are collected here from a protein production outcome set (Wang et al. 2014).
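Further: failed if final PepcDB status was selected cloned or expressed and not failed if soluble or beyond.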

This data set in a line: label from the status in PepcDB records.
Take “MVNEGLIPSLEDEVKRRGVINQLRKIVVRWVKNVAWQHRLPQNQIDATNATILPYGSYGLGVYGSESDIDALCIGPFFASIADFFISLRDMLKSRREVSELHCVKDAKVPLIRFKFDGILVDLPYAQLRVLSIPNNVDVLNPFFLRDIDETSWKILSGVRANKCILQLVPSLELFQSLLRCVKLWAKRRGVYGNLNGFLGGVHMAILAAFVCGYQPNATLSSLLANFFYTFAHWQWPTPVVLLEDTYPSTGAPPGLMPIQLPCGSHQYCNSTITRSTFYKIVAEFLLGHNLTKDYLKLNFSWKDLFELYPYANTYTWFTKIHLSAANQEDLSDWVGWVKSRFRCLLIKIEEVYGICDPNPTEYVETYTKQPNIVFYWGLQLRTINVSDIESVKIDFLKNVNSGSFRGTVGRIQLTLVKASQLPKNGECGSNNRSKKVTKTCWRIREDKQCNNVPVYSKHLPGYVVGYQKMVNREADGMEVKC”: the protein production entry is on record as “failed”.

For the sequence “MVNQQEEINLSVALVTRNRPDSLERCLKSLRDQKVQPFEVVVSDDSDDLYKSSTKEIAQKWGCRYIDGPKRGLYANRNYVALACYGTHIRTMDDDHEFPEQHIEVCLNAIQSDPSSIWIIGEYSPTSSIENAPHPCPGQLHPRGFSFYPKDTQNCWAIADGASIYPKKIFASGLRFVEYYKFGASYLEWGSRLYYLSYRIRHLDSTYIIHHFNPKARSFSDQEMDQSSRFFAMLCHSFLYQSTFKNKCLFSYEILKQFILDPKLTIKCIINSWSNFELFSRSFCALEHHHHHH”, the protein production result is “failed”.

As to “MVNRCFFFNRRICFMELFLLRHGKPDIRRSMAIRSVDMYSWIGEYDAAGILDSPDASTVAASEGKFIVSSPMPRALESVAALGLEPDIIIDELHEAPLPVFNIPLLKLTPLVWAALFRIFWMAGGSGGVETFSSVKIRAKLVSCELDKMAETHGSVLSVGHGFMNALVARELQKAGWKRQKVGPSGYWSGIKLVR”, the protein production result is reported as “failed”.

On to “MVPALALGLVIGVLLVVIGVSFAAMIFSGPLAPLATRGAGLTLFGAASLCGFLAVSSSFRSAISTPQDAPVAVLATMGVPVVAAMGMSDPNATFATMLAAMSIATLATGIALMAIGHFRLTRFFRFMPYPVVGGFLAGGGWMLVKGGISVMSSLSLNVESLPMLFESVHIWKWSPGVLYAISLWLVLKRWSHFLILPCSIVMVTAAYYVAFHILAISLADARAAGILLSGVPSSGLWPAFSISDLQTVRWDIVFDQTPIMFTVVLVTMMGLLLNISGLELGSGTDIDFDREFRNAGLANTLGGLGGSAPGSHTLSLSLLCSSSGAYTRLAGIITASVIAAVLFMGGSVLEYFPLPVLGGLLVFLGIDIMDSWLRATRRRLPLSDYLVLCVIFLVICFSGFLEGVAVGLVITVVLFIIRLSKVDIIHDSFTGLTLHSRVNRSIPQRTILQQHGERIRGYRLSGYLFFGSASLLVETLKQELRKTPQPWCILLDFKNVSGFDISAANAFQRFISSAHAEHVRIVLTETSPRFISMLQRILPIESIDNLVTAQDIDRGLEACEEAILTEYTERTAQQANAADMLFEQSVDDMMAHLDRQILFEALVEELRPWVQECHYEGETLLVEKGKTQQGLQMLVWGSATATDGDGGTRLAHLRAGDVLVPQAAFAPFVAREHIMADSPCRTVLLTAQARLLMEQENPDLALRLDRYVISSWKA”, for which the protein production entry was “failed”.

Consider “MVQIIFDSKTGNVQRFVNKTGFQQIRKVDEMDHVDTPFVLVTYTTNFGQVPASTQSFLEKYAHLLLGVAASGNKVWGDNFAKSADTISRQYQVPILHKFELSGTSKDVELFTQEVERVVTKSSAKMDPVK”, for which the protein production result is on record as “not failed”.

Take “MVQTPSKPITLDEFLKLPETEPASEYIEGKIIQKPMPQGKHSAIQSECVSVINSVVKPQRIARAFLELRCTFGDHSTVPDISVFIWSRIPREENGEIANIFLIAPDWTIEILSPDQSQTKVTKNILHCLKHGTQMGWLIDPDEQTVFVYRPQQETEVFDEPDALVPVPSFASELHLSIKDLFSWLL”: the protein production entry was “not failed”.

As to “MVQVEKGHVAVVFLNDPERRNPLSPEMALSLLQALDDLEADPGVRAVVLTGRGKAFSAGADLAFLERVTELGAEENYRHSLSLMRLFHRVYTYPKPTVAAVNGPAVAGGAGLALACDLVVMDEEARLGYTEVKIGFVAALVSVILVRAVGEKAAKDLLLTGRLVEAREAKALGLVNRIAPPGKALEEAKALAEEVAKNAPTSLRLTKELLLALPGMGLEDGFRLAALANAWVRETGDLKEGIRAFFEKRPPRF”, the protein production entry was “not failed”.

For “MVRISNMQFEVIENVKDGWNEEAFVERYSDVLNKYDYIVGDWGYNQLRLRGFFDDQNKKSTYDKKISTLQDYLYEYCNFGCAYFVVKRVKTESLEHHHHHH”, the protein production result is on record as “failed”.

For the sequence “MVRKSIDRSTAAEITRGIGNVFADLGMPDAEERQTKLRLAYALNAVIDRARLSQAAAAARLGINQPKVSALRNYKLEGFSVERLMTLLNALDQDVEIVIRKKPRSRAAARISVVAA”, the protein production entry is given as “not failed”.

“MVRLIKTETVISVLMGHFIKKLLFILLFVGVLIAPANAQNEKNMYSYKKIGNKYIVSINNHTEIVKALNAFCKEKGILSGSINGIGAIGELTLRFFNPKTKAYDDKTFREQMEISNLTGNISSMNEQVYLHLHITVGRSDYSALAGHLLSAIQNGAGEFVVEDYSERISRTYNPDLGLNIYDFERLEHHHHHH”: the protein production result is “failed”.

Regarding “MVRVDQNLFNEVMYLLDELSQDITVPKNVRKVAQDSKAKLSQENESLDLRCATVLSMLDEMANDPNVPAHGRTDLYTIISKLEALSKS”, the protein production result is recorded as “not failed”.

For “MVRYPLEPVLSIKKDRVDRAEKVVKEKRRLLELEQEKLRERESERDKVKNHYMQKIRQLREQLDDGTTSDAILKMKAYIKVVAIQLSEEEEKVNKQKENVLAASKELERAEVELTKRRKEEEKTRLHKEEWMKEALKEEARQEEKEQDEMGQLLHQLHKQKQRESGEN”, the protein production entry is given as “failed”.

With “MVSANTKPLSEFKTGEFVQIEKIQLEGTMKRRLLDLGFIPGATIKVLQRSPLGDPVAYQVSNTTIALRKEESSLIFGVLIGDDFRLEHHHHHH”, the protein production result is “not failed”.

As to “MVSAPASASSSPASSSFQSFFWQAAARPRAEPKRQALKRITLMTTDKTSPYEIHDDRFRHLIVGNAELEELYSGCRWAEGPVWFADLNCLLFSDIPNERMLRWVPDGGISVFRQPSNFTNGNTRDRQGRLVSCEHGGRRVTRTEVDGSITVLADSYGGKRLNSPNDVVVKSDGSVWFTDPTYGILSDYEGYKAEPEQKTRNVYRLDPATGKIDIAIDDFVQPNGLAFSPDETKLYVADSSYSHDISRPRHIRVFDVVDGVRLANGREFCNLDNGLPDGFRLDTAGNLWTSAGDGVHCFAPDGRLIGKIKVPQTVANLTFGGPKKNRLFITATKSLYSVYVAATGAQTPLEHHHHHH”, the protein production entry is listed as “not failed”.

“MVSDADASTSSSSIDIMPSANIQNDVPEPSVHTSHRRTRKPAYLQDYYCHSVASLTIHDISQFLSYEKVSPLYHSFLVCIAKAKEPSTYNEAKEFLVWCGAMDDEIGAMETTHTWEICTLPPNKKPIGCKWVYKIKYNSDGTIERYKARLVAKGYTQQEGIDFIETFSPVCKLTSVKLILAISAIYNFTLHQLDISNAFLNGDLDEEIYMKLPPGYAARQGDSLPPNAVCYLKKSIYGLKQASRQWFLKFSVTLIGFGFVQSHSDHTYFLKITATLFLCVLVYVDDIIICSNNDAAVDELKSQLKSCFKLRDLGPLKYFLGLEIARSAAGINICQRKYALDLLDETGLLGCKPSSVPMDPSVTFSAHSGGDFVDAKAYRRLIGRLMYLQITRLDISFAVNKLSQFSEAPRLAHQQAVMKILHYIKGTVGQGLFYSSQAEMQLQVFSDASFQSCKDTRRSTNGYCMFLGTSLISWKSKKQQVVSKSSAEAEYRALSFATDEMMWLAQFFRELQLPLSKPTLLFCDNTAAIHIATNAVFHERTKHIESDCHSVRERSVYQATLSYSFQAYDEQDGFTEYLSPILRGTIMYIVSMFGLAGLEALICFIFLFLFSFLTSFKASAQNPFYLNHDCPNRTTYSSNSTYSTNLKTLLSSFASRNASYSTGFQNIRAGQTPDRVTGLFLCRGDLSPEVCSNCVAFSVNESLTRCPNQREAVFYYEECILRYSHKNFLSTVTYEGELIMRNPNNISSIQNQRDQFIDLVQSNMNQAANEAANSSRKFSTIKTELTSLQTLYGLVQCTPDLARQDCFSCLTSSINRMMPLFRIGARQFWPSCNSRYELYAFYNETAIGTPSPPPLFPGSTPPLTSPSIPGKSGNSTVLVVAIVVLAVLLFIALVGYCFLAQRTKKTFDTASASEVGDDMATADSLQLDYRTIQTATNDFAESNKIGRGGFGEVYKGTFSNGKEVAVKRLSKNSRQGEAEFKTEVVVVAKLQHRNLVRLLGFSLQGEERILVYEYMPNKSLDCLLFDPTKQTQLDWMQRYNIIGGIARGILYLHQDSRLTIIHRDLKASNILLDADINPKIADFGMARIFGLDQTQDNTSRIVGTYGYMAPEYAMHGQFSMKSDVYSFGVLVLEIISGRKNSSFDESDGAQDLLTHTWRLWTNRTALDLVDPLIANNCQNSEVVRCIHIGLLCVQEDPAKRPTISTVFMMLTSNTVTLPVPRQPGFFIQSSPVKDPTDSDQSTTTKSTPASIDDELITDLYPR”: the protein production entry was “failed”.

Regarding “MVSGKVLKEPASGFMFMDTLDRGVKGYAGGWLVRGKRYNCIVETGAGAAVPLWLAGLKQAGIPLESIRWILLTHVHLDHAGGAGELLRHLPNARIGIHPLGVRHILDPQRLLSHAKVVWEKDFDLLGPMLPAPAERVVELGDGEIIEIDDVRRIKVLYTPGHTSHHVAFFEESTRGVFSGDALGAFFRGKHPFGEYVSMPGVSPPKGDIPAYVQSVERIAKLSPRRIYATHFGLWEPAMPYILSATSQIITISDLCRDVFYGGGGLQDFLSRAATLLASVRQSTRGQVELEKNYFSMAKAVWNYVVAEKGGESSPG”, the protein production result is reported as “failed”.

For “MVSKRLTGAVALLFLAAGAAGAAGLTVKEQLGKDIFFDTNLSINGNQSCADCHAPEAGWTGPTSEVNAHGAVYEGSIAGRFGNRKPPSSAYATTAPILKYIRQGGGMFVGGNFWDGRATGEKLGNPAADQAQGPFLNPLEQGLPDSACVVHRVCTATYGTAMETLWPGSCAIAWPADVAAACATEGTVVNLDAPNRAASDLAYDYIALAIAAYEGSTESNAFTSKYDAFLAGKAFLTPEERRGLTLFNGKAKCARCHVNTGRAPLFTDYTYDNLGVPRNSENPFYESAFNPLGINWIDQGLGGFLASRIDYSRFATANLGKHKVPTLRNVDKKTSPDFVKAFGHNGYFKSLKEIVHFYNTRDVLPTCAPGSPGEKVTCWPEPELALTMNTTELGNLKLSDAEEDALVAFMKTLTDGYQP”, the protein production entry was “failed”.

Turning to “MVSNIDHKAMEALLRGQGCANNLKILLENGEISSVSTEPLIHTILDSFSLALSFMDSPNHPPYHESSSHNMASHMSRRSSKQKLCVAEGLVNYNHDSRTMCPNDGFTWRKYGQKTIKASAHKRCYYRCTYAKDQNCNATKRVQKIKDNPPVYRTTYLGKHVCKAFAVHDDTYSSTMIRFDQVVPEPIMPQLTTIDHQVITVEENSAEHIMNQECDINDYLVDDDPFWASQFPPFPSSDTMFLENISAFD”, the protein production entry is reported as “failed”.

On to “MVSNSSITFKEFVDYWFEAYASTAVKPSTQKRYRQLLKPALRAIGNKPLNKVKPLDIQNIYIALAGTQSNCTILKLHRLLHEIFKHAQMWEYISDNPVKKVVPPTPEKKVFDLEHHHHHH”, for which the protein production result was “failed”.
